Measured values taken from paper PMC9363494, “C-terminal truncation modulates α-Synuclein’s cytotoxicity and aggregation by promoting the interactions with membrane and chaperone” (Communications Biology, 2022).

Molecular target: T1, C-terminally truncated α-synuclein (residues 1-99) (UniProt P37840 1-99)
T1 construct: α-synuclein with a deletion of the C-terminus, amino acids 1-99; Uniformly 15N-enriched for the NMR experiments; also called CT-α-syn; source: E. coli BL21 (DE3), purified (SP cation exchange, Superdex 75)
Assay: NMR titration; 1H-15N HSQC of 0.3 mM 15N-enriched FL- or CT-α-syn titrated with PDI (mole ratios 10:1 to 1:1, 0-300 μM PDI); 20 mM HEPES, 100 mM NaCl, 5 mM TCEP, pH 7.0, 10% D2O, 15 °C; KD from fits of the average CSPs of residues in segment 1 and in segment 2
Conditions: both partners purified

B1: protein disulfide isomerase (enzyme)
chain: not shown
notes: human protein disulfide isomerase (PDI); the human PDI gene cloned into pET-28a; The vector has a TEV protease cleavage site after the His6-tag; no cleavage step is described; also called PDI; source: E. coli BL21 (DE3), purified (HisTrap, Resource Q, Superdex 200)
- KD of segment 1: ~40 µM
- KD of segment 2: ~400 µM
